The values that follow come from patent US20220048967A1 (published 2022).

Numbered stars: 1 amine (or outer) side, 2 acyl side, 3 side chain; on linkers, the order of the positions; unused ones are H or OH. Square brackets hold non-standard residues; d marks the D form. Side chains are listed from the residue outwards. Ends that are not written are not given here. * marks the point of attachment. C20 diacid = O=C(O)CCCCCCCCCCCCCCCCCCC(=O)*; αMePhe(2-F) = C[C@](N)(Cc1ccccc1F)C(=O)O; γGlu = O=C(O)[C@H](CCC(=O)[*:2])N[*:1]; Desaminotyrosyl = O=C(CCc1ccc(O)cc1)*; αMeF = C[C@](N)(Cc1ccccc1)C(=O)O; AEEA = NCCOCCOCC(=O)O; Aib = CC(C)(N)C(=O)O

The target of assay [1] is T1, human gastric inhibitory peptide receptor (GIPR) (human, UniProt P48546 22-466).
T1 sequence (looked up): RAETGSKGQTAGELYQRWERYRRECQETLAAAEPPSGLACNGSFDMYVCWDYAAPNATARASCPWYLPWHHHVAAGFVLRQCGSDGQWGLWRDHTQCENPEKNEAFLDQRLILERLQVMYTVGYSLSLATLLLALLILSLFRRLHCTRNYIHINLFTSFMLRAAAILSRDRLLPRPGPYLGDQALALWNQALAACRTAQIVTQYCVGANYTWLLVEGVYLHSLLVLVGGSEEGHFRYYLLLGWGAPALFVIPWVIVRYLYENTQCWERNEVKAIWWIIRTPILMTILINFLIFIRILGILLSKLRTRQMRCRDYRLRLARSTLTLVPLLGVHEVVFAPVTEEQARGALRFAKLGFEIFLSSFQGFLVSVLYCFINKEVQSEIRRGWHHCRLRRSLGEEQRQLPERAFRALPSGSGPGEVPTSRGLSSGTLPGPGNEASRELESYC
Description: cell-based or functional assay.

In assay [2] the target is human GLP-1 receptor (GLP-1R) (human, UniProt P43220 24-463). Description: cell-based or functional assay.

B1: Example 135 (peptide)
peptide: H[Aib]NGTFTSDYSILLDKK([AEEA-AEEA-γGlu-C20 diacid])AQ[Aib]AFIEYLIEGGPSSGAPPPS-NH2
modifications: N-terminus assumed
SMILES: CC[C@H](C)[C@H](NC(=O)[C@H](CC(C)C)NC(=O)[C@H](Cc1ccc(O)cc1)NC(=O)[C@H](CCC(=O)O)NC(=O)[C@@H](NC(=O)[C@H](Cc1ccccc1)NC(=O)[C@H](C)NC(=O)C(C)(C)NC(=O)[C@H](CCC(N)=O)NC(=O)[C@H](C)NC(=O)[C@H](CCCCNC(=O)COCCOCCNC(=O)COCCOCCNC(=O)CC[C@H](NC(=O)CCCCCCCCCCCCCCCCCCC(=O)O)C(=O)O)NC(=O)[C@H](CCCCN)NC(=O)[C@H](CC(=O)O)NC(=O)[C@H](CC(C)C)NC(=O)[C@H](CC(C)C)NC(=O)[C@@H](NC(=O)[C@H](CO)NC(=O)[C@H](Cc1ccc(O)cc1)NC(=O)[C@H](CC(=O)O)NC(=O)[C@H](CO)NC(=O)[C@@H](NC(=O)[C@H](Cc1ccccc1)NC(=O)[C@@H](NC(=O)CNC(=O)[C@H](CC(N)=O)NC(=O)C(C)(C)NC(=O)[C@@H](N)Cc1c[nH]cn1)[C@@H](C)O)[C@@H](C)O)[C@@H](C)CC)[C@@H](C)CC)C(=O)N[C@@H](CCC(=O)O)C(=O)NCC(=O)NCC(=O)N1CCC[C@H]1C(=O)N[C@@H](CO)C(=O)N[C@@H](CO)C(=O)NCC(=O)N[C@@H](C)C(=O)N1CCC[C@H]1C(=O)N1CCC[C@H]1C(=O)N1CCC[C@H]1C(=O)N[C@@H](CO)C(N)=O
Take B1: in assay [1], the “hGIPR cAMP EC50 ratio” value amounted to 0.482 and the “hGIPR cAMP Rel EC50” value turned out to be 0.373 nM. Moreover, in assay [2], the “hGLP1R cAMP EC50 ratio” value was 0.509 and the “hGLP1R cAMP Rel EC50” value came out at 0.131 nM.

B2: Example 134 (peptide)
peptide: [Desaminotyrosyl][Aib]EGT[αMePhe(2-F)]TSDYSIXLDEK([AEEA-AEEA-γGlu-C20 diacid])AQ[Aib]EFIEYLIEGGPSSGAPPPS-NH2
modifications: not fully specified (residue 13); printed as DesTyr-Aib-EGT-αMeF(2F)-TSDYSI-αMeF-LDEK((2-[2-(2-Amino-ethoxy)-ethoxy]-acetyl)2-(γ-Glu)-CO-(CH2)18-CO2H)AQ-Aib-EFIEYLIEGGPSSGAPPPS-NH2
Consider B2, for which, in assay [1], the “hGIPR cAMP EC50 ratio” value amounted to 1.43 and the “hGIPR cAMP Rel EC50” value was 0.104 nM. In assay [2], the “hGLP1R cAMP EC50 ratio” value came out at 0.942 and the “hGLP1R cAMP Rel EC50” value is 0.0654 nM.

B3: Example 141 (peptide)
peptide: Y[Aib]EGT[αMeF]TSDYSIXLDKKAQ[Aib]IFIEYLIEGGPSSGAPPPS-NH2
modifications: not fully specified (residues 13, 17); printed as Y-Aib-EGT-αMeF-TSDYSI-αMeF-LDKK((2-[2-(2-Amino-ethoxy)-ethoxy]-acetyl)2-(γ-Glu)-CO-(CH2)18-CO2H)AQ-Aib-IFIEYLIEGGPSSGAPPPS-NH2
As to B3, in assay [1], the “hGIPR cAMP EC50 ratio” value turned out to be 0.538 and the “hGIPR cAMP Rel EC50” value is 0.2 nM. Also, in assay [2], the “hGLP1R cAMP EC50 ratio” value turned out to be 0.414 and the “hGLP1R cAMP Rel EC50” value is 0.0975 nM.

B4: Example 133 (peptide)
peptide: [Desaminotyrosyl][Aib]EGT[αMeF]TSDYSI[Aib]LDEK([AEEA-AEEA-γGlu-C20 diacid])AQ[Aib]AFIEYLIEGGPSSGAPPPS-NH2
SMILES: CC[C@H](C)[C@H](NC(=O)[C@H](CC(C)C)NC(=O)[C@H](Cc1ccc(O)cc1)NC(=O)[C@H](CCC(=O)O)NC(=O)[C@@H](NC(=O)[C@H](Cc1ccccc1)NC(=O)[C@H](C)NC(=O)C(C)(C)NC(=O)[C@H](CCC(N)=O)NC(=O)[C@H](C)NC(=O)[C@H](CCCCNC(=O)COCCOCCNC(=O)COCCOCCNC(=O)CC[C@H](NC(=O)CCCCCCCCCCCCCCCCCCC(=O)O)C(=O)O)NC(=O)[C@H](CCC(=O)O)NC(=O)[C@H](CC(=O)O)NC(=O)[C@H](CC(C)C)NC(=O)C(C)(C)NC(=O)[C@@H](NC(=O)[C@H](CO)NC(=O)[C@H](Cc1ccc(O)cc1)NC(=O)[C@H](CC(=O)O)NC(=O)[C@H](CO)NC(=O)[C@@H](NC(=O)[C@](C)(Cc1ccccc1)NC(=O)[C@@H](NC(=O)CNC(=O)[C@H](CCC(=O)O)NC(=O)C(C)(C)NC(=O)CCc1ccc(O)cc1)[C@@H](C)O)[C@@H](C)O)[C@@H](C)CC)[C@@H](C)CC)C(=O)N[C@@H](CCC(=O)O)C(=O)NCC(=O)NCC(=O)N1CCC[C@H]1C(=O)N[C@@H](CO)C(=O)N[C@@H](CO)C(=O)NCC(=O)N[C@@H](C)C(=O)N1CCC[C@H]1C(=O)N1CCC[C@H]1C(=O)N1CCC[C@H]1C(=O)N[C@@H](CO)C(N)=O
In the case of B4, in assay [1], the “hGIPR cAMP EC50 ratio” value was 1.89 and the “hGIPR cAMP Rel EC50” value was found to be 0.0879 nM. Further, in assay [2], the “hGLP1R cAMP EC50 ratio” value is 1.52 and the “hGLP1R cAMP Rel EC50” value came to 0.0436 nM.

B5: Example 139 (peptide)
peptide: Y[Aib]EGT[αMeF]TSDYSIXLDKK([AEEA-AEEA-γGlu-C20 diacid])AQ[Aib]TFIEYLIEGGPSSGAPPPS-NH2
modifications: not fully specified (residue 13); printed as Y-Aib-EGT-αMeF-TSDYSI-αMeF-LDKK((2-[2-(2-Amino-ethoxy)-ethoxy]-acetyl)2-(γ-Glu)-CO-(CH2)18-CO2H)AQ-Aib-TFIEYLIEGGPSSGAPPPS-NH2
Take B5: in assay [1], the “hGIPR cAMP EC50 ratio” value was 3.61 and the “hGIPR cAMP Rel EC50” value came to 0.037 nM. Also, in assay [2], the “hGLP1R cAMP EC50 ratio” value came to 1.13 and the “hGLP1R cAMP Rel EC50” value amounted to 0.0417 nM.

B6: Example 136 (peptide)
peptide: Y[Aib]EGTFTSDASILLDKK([AEEA-AEEA-γGlu-C20 diacid])AQ[Aib]AFIEYLIEAGPSSGAPPPS-NH2
modifications: N-terminus assumed
SMILES: CC[C@H](C)[C@H](NC(=O)[C@H](CC(C)C)NC(=O)[C@H](Cc1ccc(O)cc1)NC(=O)[C@H](CCC(=O)O)NC(=O)[C@@H](NC(=O)[C@H](Cc1ccccc1)NC(=O)[C@H](C)NC(=O)C(C)(C)NC(=O)[C@H](CCC(N)=O)NC(=O)[C@H](C)NC(=O)[C@H](CCCCNC(=O)COCCOCCNC(=O)COCCOCCNC(=O)CC[C@H](NC(=O)CCCCCCCCCCCCCCCCCCC(=O)O)C(=O)O)NC(=O)[C@H](CCCCN)NC(=O)[C@H](CC(=O)O)NC(=O)[C@H](CC(C)C)NC(=O)[C@H](CC(C)C)NC(=O)[C@@H](NC(=O)[C@H](CO)NC(=O)[C@H](C)NC(=O)[C@H](CC(=O)O)NC(=O)[C@H](CO)NC(=O)[C@@H](NC(=O)[C@H](Cc1ccccc1)NC(=O)[C@@H](NC(=O)CNC(=O)[C@H](CCC(=O)O)NC(=O)C(C)(C)NC(=O)[C@@H](N)Cc1ccc(O)cc1)[C@@H](C)O)[C@@H](C)O)[C@@H](C)CC)[C@@H](C)CC)C(=O)N[C@@H](CCC(=O)O)C(=O)N[C@@H](C)C(=O)NCC(=O)N1CCC[C@H]1C(=O)N[C@@H](CO)C(=O)N[C@@H](CO)C(=O)NCC(=O)N[C@@H](C)C(=O)N1CCC[C@H]1C(=O)N1CCC[C@H]1C(=O)N1CCC[C@H]1C(=O)N[C@@H](CO)C(N)=O
With B6, in assay [1], the “hGIPR cAMP EC50 ratio” value worked out at 0.0544 and the “hGIPR cAMP Rel EC50” value was determined as 3.39 nM. Further, in assay [2], the “hGLP1R cAMP EC50 ratio” value turned out to be 1.1 and the “hGLP1R cAMP Rel EC50” value is 0.06 nM.

B7: Example 140 (peptide)
peptide: Y[Aib]EGT[αMeF]TSDYSIXLDKKAQ[Aib]DFIEYLIEGGPSSGAPPPS-NH2
modifications: not fully specified (residues 13, 17); printed as Y-Aib-EGT-αMeF-TSDYSI-αMeF-LDKK((2-[2-(2-Amino-ethoxy)-ethoxy]-acetyl)2-(γ-Glu)-CO-(CH2)18-CO2H)AQ-Aib-DFIEYLIEGGPSSGAPPPS-NH2
Take B7: in assay [1], the “hGIPR cAMP EC50 ratio” value stood at 3.76 and the “hGIPR cAMP Rel EC50” value came out at 0.0349 nM. Further, in assay [2], the “hGLP1R cAMP EC50 ratio” value came to 1.16 and the “hGLP1R cAMP Rel EC50” value came to 0.0424 nM.
